The text below walks through data of patent publication US20250059527A1 (UNIVERSITY OF DUNDEE, published 2025).

In this experiment the target is α-synuclein (human, UniProt P37840 1-140). The experiment can be described thus: immunofluorescence microscopy, co-localisation in SK-MEL13 cells. The protocol: For immunofluorescence imaging, cells were first seeded onto 16 mm diameter circular sterile coverslips in 12-well culture plates and left to adhere overnight. All coverslips were sterilised with 100% (v/v) ethanol prior to use and allowed to dry. Cells were washed twice in PBS before being fixed in 4% (w/v) paraformaldehyde (diluted in PBS) at room temperature for 10 minutes. PFA was removed and the coverslips were washed twice in PBS. Coverslips were then permeabilised with 0.2% (v/v) NP40 in PBS for 3 min. Cells were then blocked by washing twice and a 15-minute incubation in 1% (w/v) BSA/PBS. Coverslips were then incubated for 1.5 hr at room temperature with a 1:100 dilution of anti-α-synuclein antibody (610786, BD Biosciences) in a humidified chamber. They were then washed 3 times (for 10 minutes each) in 0.2% (w/v) BSA/PBS before being incubated with goat anti-mouse-IgG alexa-fluor 594 conjugated secondary antibody (A-11005, Thermo Fisher Scientific) at a dilution of 1:500 for 1 hour at 37° C., protected from light. Coverslips were then washed three times in 0.2% (w/v) BSA/PBS for 10 minutes each with the first wash containing a 1:15,000 dilution of DAPI. […]
The interaction of NbSyn87 and alpha-synuclein was determined in extracts and cells, with alpha-synuclein knockout cells included as controls for a clean alpha-synuclein IP. […]

B1: GFP-NbSYN87 (VHH)
VHH: QVQLQESGGGSVQTGGSLRLSCVASGYSGYMAWFRQAPGKEREGIAAIYRGDKITYYAHSVQGRFTISQANAKNTVYLLMNSLKPEDTAIYYCAARRVVADSPLLSKTYAYWGQGTQVTVSS
notes: Transiently transfected into SK-MEL13 cells; also called GFP-tagged NbSyn87; not shown: GFP tag
Consider B1, for which the binding result is “binds”.
